The values that follow come from publication doi:10.1101/2021.04.27.441644.

The experiment has as its target filamentous actin (F-actin) (rabbit) (UniProt P68135). In words: co-sedimentation.

CLIP-170 N-terminal fragment H2 (H2 1-481), sequence (P30622 1-481): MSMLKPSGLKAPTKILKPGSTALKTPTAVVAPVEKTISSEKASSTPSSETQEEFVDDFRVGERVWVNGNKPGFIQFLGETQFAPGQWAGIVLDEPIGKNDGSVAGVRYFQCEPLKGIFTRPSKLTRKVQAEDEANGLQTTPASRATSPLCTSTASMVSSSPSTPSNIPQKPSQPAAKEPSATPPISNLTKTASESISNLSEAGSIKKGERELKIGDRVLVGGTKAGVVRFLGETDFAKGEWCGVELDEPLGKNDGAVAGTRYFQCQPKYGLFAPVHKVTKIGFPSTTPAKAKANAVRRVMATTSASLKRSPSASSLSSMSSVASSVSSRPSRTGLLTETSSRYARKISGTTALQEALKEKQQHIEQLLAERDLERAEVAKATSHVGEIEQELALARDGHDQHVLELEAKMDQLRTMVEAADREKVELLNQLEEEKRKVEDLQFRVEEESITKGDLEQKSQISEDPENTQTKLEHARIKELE

Usually Kd stands for the concentration at which binding is half-saturated. Read a high Kd as lower affinity. The substance “CLIP-170 N-terminal fragment H2 (H2 1-481) (from UniProt P30622 1-481) (domain or fragment)” gave a Kd of 10 µM and a percent of H2 in the pellet with F-actin (self-pelleting subtracted) of 26%.
